# Source: article PMC4287557 (PLoS Pathogens, 2015)
# Experiments:
# [1] = target: JRFL gp120 monomer (HIV-1 subtype B strain JRFL, UniProt Q75760); assay: BLI; conditions: both partners purified
# [2] = target: 16055 gp120 monomer (HIV-1 subtype C strain 16055); assay: BLI; conditions: both partners purified
binder,measurement,setting,value
"VRC01 IgG (antibody, V domains shown, also called bNAb VRC01) VH: QVQLVQSGGQMKKPGESMRISCRASGYEFIDCTLNWIRLAPGKRPEWMGWLKPRGGAVNYARPLQGRVTMTRDVYSDTAFLELRSLTVDDTAVYFCTRGKNCDYNWDFEHWGRGTPVIVSS VL: EIVLTQSPGTLSLSPGETAIISCRTSQYGSLAWYQQRPGQAPRLVIYSGSTRAAGIPDRFSGSRWGPDYNLTISNLESGDFGVYYCQQYEFFGQGTKVQVD",binding result,[1],binds
same,binding result,[2],binds
